Measurements taken from patent US20180362645A1.

Columns and labels:
Experiment in all cases: cell-based or functional assay
[1] = target: human pituitary adenylate cyclase-activating polypeptide type I receptor (human) (UniProt P41586)
[2] = target: T1, VPAC1
T1 sequence (P32241 whole entry, species assumed, looked up): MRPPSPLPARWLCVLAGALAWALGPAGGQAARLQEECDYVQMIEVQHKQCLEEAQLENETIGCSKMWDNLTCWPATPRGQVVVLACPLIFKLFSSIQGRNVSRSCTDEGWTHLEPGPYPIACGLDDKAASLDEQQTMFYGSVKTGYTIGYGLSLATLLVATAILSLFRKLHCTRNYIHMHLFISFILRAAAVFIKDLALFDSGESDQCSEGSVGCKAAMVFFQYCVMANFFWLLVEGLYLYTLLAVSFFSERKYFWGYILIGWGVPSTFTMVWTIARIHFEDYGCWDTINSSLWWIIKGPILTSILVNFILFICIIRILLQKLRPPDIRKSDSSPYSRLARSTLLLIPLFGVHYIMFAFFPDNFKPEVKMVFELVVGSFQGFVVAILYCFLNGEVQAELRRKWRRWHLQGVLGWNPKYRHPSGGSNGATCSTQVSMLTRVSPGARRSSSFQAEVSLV

[3] = target: T2, VPAC2
T2 sequence (P41587 whole entry, species assumed, looked up): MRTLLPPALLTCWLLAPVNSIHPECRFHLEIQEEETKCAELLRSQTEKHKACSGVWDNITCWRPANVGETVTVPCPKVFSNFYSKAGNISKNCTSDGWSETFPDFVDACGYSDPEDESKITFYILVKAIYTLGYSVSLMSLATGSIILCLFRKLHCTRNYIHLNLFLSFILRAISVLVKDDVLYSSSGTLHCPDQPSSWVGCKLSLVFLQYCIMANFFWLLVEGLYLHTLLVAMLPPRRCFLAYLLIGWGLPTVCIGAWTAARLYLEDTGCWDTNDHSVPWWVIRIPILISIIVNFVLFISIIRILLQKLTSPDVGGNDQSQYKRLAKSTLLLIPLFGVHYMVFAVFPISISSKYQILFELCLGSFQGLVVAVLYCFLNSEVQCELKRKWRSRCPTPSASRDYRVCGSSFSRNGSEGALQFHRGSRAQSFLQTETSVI

Chain of Maxadilan (P30659 24-84 limits assumed): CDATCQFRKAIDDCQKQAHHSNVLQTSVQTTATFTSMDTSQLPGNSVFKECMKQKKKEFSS
Chain of human pituitary adenylate cyclase-activating polypeptide type I receptor (human) (P41586 21-468): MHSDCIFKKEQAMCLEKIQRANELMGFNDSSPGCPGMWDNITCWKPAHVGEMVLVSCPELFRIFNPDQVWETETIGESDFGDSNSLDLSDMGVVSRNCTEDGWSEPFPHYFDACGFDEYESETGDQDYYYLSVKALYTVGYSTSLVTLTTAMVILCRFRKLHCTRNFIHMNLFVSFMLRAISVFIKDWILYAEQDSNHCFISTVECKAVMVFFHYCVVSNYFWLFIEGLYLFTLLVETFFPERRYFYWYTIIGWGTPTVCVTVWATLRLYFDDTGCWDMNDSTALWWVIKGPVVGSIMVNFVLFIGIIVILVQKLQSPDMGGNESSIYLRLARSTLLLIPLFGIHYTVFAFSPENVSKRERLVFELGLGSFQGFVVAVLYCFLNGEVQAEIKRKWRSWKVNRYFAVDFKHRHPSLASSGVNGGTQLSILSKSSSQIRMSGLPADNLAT

Question: What does the source list for “Maxadilan (from UniProt P30659 24-84) (ligand)”?
Answer: PAC1 EC50 (agonist activity) [1]: 0.06 nM; VPAC1 EC50 (agonist activity) [2]: > 1000 nM; VPAC2 EC50 (agonist activity) [3]: > 1000 nM
